Source: patent US20170204454A1 (THERMO FISHER SCIENTIFIC BALTICS UAB, published 2017)

Tests used:
[1] = target: T1, Pyrococcus DNA polymerase with a sequence non-specific DNA binding domain (Pyrococcus); experiment: indirect ELISA, apparent dissociation constant
T1 construct: It was the immunogen and the ELISA and Western blot antigen; also called Pyrococcus DNA polymerase-DBD
T1 chain: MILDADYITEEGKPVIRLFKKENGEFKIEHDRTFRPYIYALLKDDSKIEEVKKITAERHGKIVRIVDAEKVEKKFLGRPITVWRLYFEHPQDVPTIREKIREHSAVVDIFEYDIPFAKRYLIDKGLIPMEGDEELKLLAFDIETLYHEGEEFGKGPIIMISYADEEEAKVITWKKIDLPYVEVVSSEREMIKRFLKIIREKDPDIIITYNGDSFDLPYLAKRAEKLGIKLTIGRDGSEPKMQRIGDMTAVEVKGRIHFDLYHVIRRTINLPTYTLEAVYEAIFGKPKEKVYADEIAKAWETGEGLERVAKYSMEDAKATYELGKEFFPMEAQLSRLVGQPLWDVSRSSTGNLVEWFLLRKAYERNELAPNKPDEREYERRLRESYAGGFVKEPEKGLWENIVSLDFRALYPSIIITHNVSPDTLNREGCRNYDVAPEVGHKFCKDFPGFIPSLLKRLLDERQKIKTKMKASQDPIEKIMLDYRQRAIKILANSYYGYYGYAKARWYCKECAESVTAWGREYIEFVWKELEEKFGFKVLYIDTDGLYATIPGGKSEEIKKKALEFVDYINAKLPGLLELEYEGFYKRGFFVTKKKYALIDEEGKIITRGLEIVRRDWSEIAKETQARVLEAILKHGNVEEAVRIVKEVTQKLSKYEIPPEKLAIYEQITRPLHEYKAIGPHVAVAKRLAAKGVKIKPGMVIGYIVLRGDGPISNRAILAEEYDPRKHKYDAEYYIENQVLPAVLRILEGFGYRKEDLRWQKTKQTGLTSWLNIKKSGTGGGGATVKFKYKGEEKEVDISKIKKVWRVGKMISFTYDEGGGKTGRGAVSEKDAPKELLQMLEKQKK
Method: The affinity of monoclonal antibodies was determined by measuring their apparent dissociation constants (kD) by an indirect ELISA (Table 2).

[2] = target: T1, Pyrococcus DNA polymerase with a …; experiment: cell-based or functional assay

B1: 5D3 (antibody, V domains shown)
VH: SGPGLVAPSQSLSITCTVSGFSLTDYGVSWVRQSPGQGLEWLGIIWGDGSTDYHSSLISRLRISKDNSKSQVFLKLNSLQTDDTATYYCARPVIGNYAMDYWGQG
VL: TQSPASLAVSLGQRATISCRASESVEYYGTRLMQWYQQKPGKAPKLLIYGASNVESGVPARFSGSGSGTDFSLNIHPVEEDDFAMYFCQQSRKVPWTFGGG
notes: also called 5D3 antibody
Kd [1]: 0.29 nM
Inhibition of exonuclease activity [2]: 71 molar ratio enzyme:antibody (1:x)
Inhibition of polymerase activity [2]: 20 molar ratio enzyme:antibody (1:x)
